Data as given in patent US20250236667A1, “ANTIBODIES TO MUTANT CALRETICULIN AND USES THEREOF” (CENTRAL ADELAIDE LOCAL HEALTH NETWORK INC, priority 2021, published 2025).

Legend:
[1] = test system: ruxolitinib-resistant TF-1 TpoR CALR^del61 cells; assay: Colony formation in MethoCult; type: cell-based, human; details: after 72 hours of treatment
Protocol: A. Graph showing effect of ruxolitinib on megakaryocyte differentiation at 50 and 100 nM in healthy CD34+ cells (n=4). B. Effect of 4D7 on TPO-dependent megakaryocyte differentiation of healthy CD34+ cells cultured with 20 μg/mL 4D7 or IgG control (n=4). C. Total numbers of hematopoietic colonies plated in MethoCult from healthy cord blood after treatment with 4D7 or IgG. CFU-GM, colony forming unit-granulocyte macrophage: BFU-E, blast forming unit-erythroid: CFU-GEMM, colony forming unit granulocyte, erythroid, monocyte, megakaryocyte (n=3).D. CD41+megakaryocyte colonies from healthy CD34+ cells observed on collagen matrix after 4D7 treatment. Colonies were cultured in TPO, SCF. IL-9 and IL-3. E. Number of megakaryocyte colony forming units observed in MegaCult assay after treatment of healthy cord blood CD34+ cells with either IgG or 4D7 (n=3). F. Western blot showing signalling in ruxolitinib-resistant TF-1 TpoR CALR^del61 compared to ruxolitinib sensitive TF-1 TpoR CALR^del61 cells after treatment with 100 nM ruxolitinib for 16 hours or 30 minutes and blotted for phospho-STAT5, total STAT5, phospho-ERK, total ERK and actin as indicated. Ruxolitinib-sensitive cells were non-viable after 16 hours of treatment. […] Cells counted using Trypan Blue exclusion with replicate wells (n=3). […]

[2] = test system: mutant CALR neoepitope peptides; assay: Binding of 4D7 to peptides covering regions of the immunizing neopeptide; design: species or system human
Protocol: B. Diluting concentrations of 4D7 to bound full-length 30 amino acid peptide compared to scrambled, C-terminal and N-terminal 11 amino acid peptides as shown in A (n=3). C. Scatchard analysis showing dissociation constant of 4D7 using I^125-labelled and unlabelled 4D7 bound to full-length 30 amino acid peptide (n=3). D. Histogram showing fluorescence intensity of 4D7 conjugated to phycoerythrin at a 4 μg/mL TF-1 TpoR CALR^del 61 vs TF-1 TpoR compared to unstained. E. TF-1 TpoR cells with endogenous wild type CALR cultured in the presence of TPO and 2, 10 or 20 μg/mL 4D7 anti-mutant CALR antibody or 20 μg/mL control IgG antibody (n=3). F. Proliferation curves of factor-independent TF-1 TpoR CALR^del61 cells cultured with 2, 10 or 20 μg/mL 4D7 or 20 μg/mL of control IgG antibody (n=3). G Proliferation curves of factor-independent TF-1 TpoR CALR^del52 cells cultured with 10 or 20 µg/mL 4D7 or 20 μg/mL of control IgG antibody (n=3). Data information: For panels E-G, bars represent standard error of the mean summarizing 3 independent experiments performed in triplicate, with a one-way ANOVA with Bonferroni correction used to determine statistical significance.

[3] = test system: ruxolitinib-resistant TF-1 TpoR CALR^del61 cells in NSG mice; assay: Bone marrow engraftment xenograft model, ruxolitinib-resistant cells; type: in vivo; details: cells resistant to 100 nM ruxolitinib; 12.5 mg/kg twice weekly from day 7; P=0.0008
Protocol: All procedures were approved by the South Australian Health and Medical Research Animal Ethics Committee (Protocol SAM21-018). Bone marrow engraftment model: 4-6 week old NSG mice were x-ray irradiated with 150 cGy and 5×10^5 cells (TF-1-TpoR CALR^del61) or 5×10^4 cells (100 nM ruxolitinib resistant TF-1 TpoR CALR^del61) were intravenously injected into mice. Seven days after injection, mice were administered 12.5 mg/kg IgG or 4D7 by intraperitoneal injection twice weekly. Tail vein bleeds were taken at 3 weeks and analysed via flow cytometry to determine human leukaemia content in the peripheral blood. Leukemic cells were PI-, mCD45.1, hCD33+, zsGreen+. Mice were monitored daily and euthanized once clinical symptoms were observed. At the time of euthanasia, cardiac puncture was performed to obtain both peripheral blood and serum for analysis. Additionally, bone marrow from both femurs, spine and spleens were analysed for leukemic content as detailed above. Chloroma model: 4-6 week old NSG mice were anaesthetised by isoflurane inhalation and shaved on the left back/flank and 1×10^7 cells were injected into the mice. Cells were pre-treated with 20 μg/mL IgG or 4D7 for 1 hour prior to injection. Seven days after injection, mice were administered 12.5 mg/kg IgG or 4D7 by intraperitoneal injection twice weekly. Tumour progression was assessed through caliper measurements every 2 days. […]

B1: 4D7: rat monoclonal IgG2a antibody against the mutant CALR neoepitope; VH SEQ ID NO: 5, VL SEQ ID NO: 7 (antibody, listed as Rattus rattus, V domains shown)
VH: QVQLQQSGAELAKPGSSVKISCKASGYTFTNYDMSWIKQRPGQALEWIGAINPGNGVTDYNEKFRGKATLTVDKSSSTAFMQLSSLTPEDTAVYHCAREYRDNYGYFDYWGQGVMVTVSS
VL: DIVLTQTPVSLSVTLGDQASISCRSSQSLEYSDGYTYLDWFLQKPGQSPQLLIYEVSSRFSGVPDRFIGRGSGTDFTLKISRVEPEDLGVYYCFQATHDPFTFGSGTKLEIK
- inhibitory activity on colony formation [1]: strong inhibitory activity
- binding to C-terminal portion of the immunogen ([2]; C-terminal 11 amino acid peptide): no binding
- region of the immunizing neopeptide to which binding was mapped ([2]; peptides covering different regions of the neopeptide): 11 amino acids of the N-terminus
- binding to scrambled peptide ([2]; scrambled peptide): no binding
- survival, hazard ratio [3]: 0.26
